The target in assay [1] is T1, SecA (E. coli, UniProt P10408 1-901). The assay is described as follows: cross-linking.
In assay [2] the target is T1, SecA. The assay is described as follows: cross-linking. The source holds these as a separate data set.

Read-outs that look alike come from different tables or passages of the source. No end group written: not given here. *: point of attachment. Biotin = O=C1N[C@H]2[C@H](CS[C@H]2CCCCC(=O)*)N1; MBP = 4-maleimido-benzophenone

T1 sequence (P10408 whole entry): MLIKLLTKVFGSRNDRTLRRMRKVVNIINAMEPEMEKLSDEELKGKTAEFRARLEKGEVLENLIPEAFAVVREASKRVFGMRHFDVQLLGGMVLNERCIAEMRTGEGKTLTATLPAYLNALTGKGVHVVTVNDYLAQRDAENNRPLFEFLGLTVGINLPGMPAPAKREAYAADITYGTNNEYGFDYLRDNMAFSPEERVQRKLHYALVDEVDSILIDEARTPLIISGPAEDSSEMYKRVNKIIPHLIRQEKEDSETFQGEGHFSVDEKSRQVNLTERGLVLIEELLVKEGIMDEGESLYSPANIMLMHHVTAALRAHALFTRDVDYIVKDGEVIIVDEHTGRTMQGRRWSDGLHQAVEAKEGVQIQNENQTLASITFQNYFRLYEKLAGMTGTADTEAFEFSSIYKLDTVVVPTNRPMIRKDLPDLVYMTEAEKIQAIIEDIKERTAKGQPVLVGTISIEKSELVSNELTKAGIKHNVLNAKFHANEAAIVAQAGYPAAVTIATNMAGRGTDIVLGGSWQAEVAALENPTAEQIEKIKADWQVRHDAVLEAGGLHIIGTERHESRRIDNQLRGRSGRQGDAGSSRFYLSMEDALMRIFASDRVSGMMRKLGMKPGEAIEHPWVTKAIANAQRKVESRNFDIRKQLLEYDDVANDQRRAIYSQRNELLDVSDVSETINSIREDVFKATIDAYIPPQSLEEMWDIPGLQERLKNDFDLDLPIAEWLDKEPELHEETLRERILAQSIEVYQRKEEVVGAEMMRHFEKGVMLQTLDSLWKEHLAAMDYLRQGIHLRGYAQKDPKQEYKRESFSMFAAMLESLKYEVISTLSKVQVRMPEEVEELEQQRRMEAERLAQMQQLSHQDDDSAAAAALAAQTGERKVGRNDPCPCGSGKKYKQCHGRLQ

Biotin-MMITLRKRRKLPLAVAVAAGVCSAQAMA [Biotinylated-KRRLamB19C signal peptide]: the binding result with SecA [1] is listed as “binds”.
With Biotin-MMITLRKRRKLPLAVAVAAGVC(MBP)SAQAMA [Bio-KRRLamB19C-MBP], in the assay with SecA [2], the binding result is “binds”.

Values taken from publication PMC3290997 (Biochemistry, 2012).
